Biological target: the molecule itself
Assay: X-ray crystal structure (self-association of subunits)
Method: The crystals were moved into 0.15M sodium citrate buffer (pH 5.6) containing 25% glycerol and 1.5M ammonium phosphate, and rapidly cooled to −173° C. by blowing nitrogen gas. The X-ray diffraction data of PtALD native crystals was collected using an X-ray diffractometer R-AXIS V++ (Rigaku Co., Ltd.) at the Photon Factory Beamline 6B of the High Energy Accelerator Research Organization (Tsukuba, Japan). The X-ray wavelength was fixed at 1.0 angstrom and the distance from the crystal to an imaging plate detector was 180 mm. Exposure time and an oscillation angle per one imaging plate frame were 120 sec and 0.8°, respectively, and the data for 150 frames was collected. In the crystallographic parameters, the space group was P6₃22, and the lattice constants were a=94.38 angstrom and c=111.49 angstrom. The asymmetric unit contains one aldolase molecule, and the water content of the crystal was 60%. The crystal was diffracted to approximately 1.5 angstrom resolution. The data processing was made with a program Crystal Clear (Rigaku Co., Ltd.). The Rmerge, which indicates the quality of the data, was 0.097 between 40.0-1.5 angstrom resolution, and 0.260 between 1.55-1.50 angstrom resolution in the most outer shell. The completeness of the data was 99.2% between 40.0-1.5 angstrom resolution, and 99.9% between 1.55-1.50 angstrom resolution in the most outer shell. […]

B1: aldolase derived from Pseudomonas taetrolens ATCC4683 (PtALD), wild-type (enzyme)
chain: MSLPGSRIYPSPPQAPRSLLDAFQNVVTPHISDNLGRHIGARGLTRYNHTGKLVGTALTVKTRPGDNLYIYKALTLIEPGHVLVIDAQGDATNAVIGELIKLYAQQRGCVGFVVDGAIRDVASFEDTPCYARSVVHCGPYKSGPGEINVPVSIGGMIINPGDIIVGDEDGLVAFSPDHAEQVLVKAREHDAHEQQVKAEIATGAIDQSWLDKVLEKAGLAN
notes: It was purified and crystallised; The asymmetric unit contains one subunit; also called IHOG aldolase; recombinant PtALD
B1: binds.

Reference: patent US20050244939A1 (AJINOMOTO, published 2005)
